# Experimental data taken from paper PMC9482650, “Quantitative fragmentomics allow affinity mapping of interactomes” (Nature Communications, 2022).
# What was measured:
# Assay in all cases: holdup assay
# Set-up in all cases: key: below the threshold = too weak to quantify, mostly under pKd 3.1 to 4
# TJP1_3, Q07157 = molecular target: TJP1_3, Q07157
# LIN7C, Q9NUP9 = molecular target: T1, LIN7C, Q9NUP9
# T1 sequence (Q9NUP9 88-185, limits assumed, looked up): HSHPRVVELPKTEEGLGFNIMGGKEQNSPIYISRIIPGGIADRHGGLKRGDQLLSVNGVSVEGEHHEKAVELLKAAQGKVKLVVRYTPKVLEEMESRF
# RADIL, Q96JH8 = molecular target: T2, RADIL, Q96JH8
# T2 sequence (Q96JH8 971-1071, limits assumed, looked up): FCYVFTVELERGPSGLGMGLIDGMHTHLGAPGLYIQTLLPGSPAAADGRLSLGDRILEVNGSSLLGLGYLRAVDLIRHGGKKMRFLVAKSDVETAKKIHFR
# SIPA1L2, Q9P2F8 = molecular target: T3, SIPA1L2, Q9P2F8
# T3 sequence (Q9P2F8 945-1036, limits assumed, looked up): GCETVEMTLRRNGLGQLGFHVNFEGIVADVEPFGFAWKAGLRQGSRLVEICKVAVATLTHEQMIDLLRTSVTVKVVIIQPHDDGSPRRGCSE
# HTRA2, O43464 = molecular target: HTRA2, O43464
# HTRA2, O43464, sequence (O43464 355-458): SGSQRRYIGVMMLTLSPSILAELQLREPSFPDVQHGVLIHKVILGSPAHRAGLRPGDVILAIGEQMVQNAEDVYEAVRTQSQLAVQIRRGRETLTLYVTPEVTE
# CARD11, Q9BXL7 = molecular target: T4, CARD11, Q9BXL7
# T4 sequence (Q9BXL7 662-765, limits assumed, looked up): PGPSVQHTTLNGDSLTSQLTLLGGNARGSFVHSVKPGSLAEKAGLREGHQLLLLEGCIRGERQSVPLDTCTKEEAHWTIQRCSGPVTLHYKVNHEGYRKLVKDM
# PDLIM1, O00151 = molecular target: PDLIM1, O00151
# PDLIM1, O00151, sequence (O00151 1-87): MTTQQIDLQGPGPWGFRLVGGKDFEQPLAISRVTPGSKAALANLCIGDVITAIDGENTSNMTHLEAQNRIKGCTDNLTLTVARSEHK
# ARHGAP21, Q5T5U3 = molecular target: T5, ARHGAP21, Q5T5U3
# T5 sequence (Q5T5U3 45-169, limits assumed, looked up): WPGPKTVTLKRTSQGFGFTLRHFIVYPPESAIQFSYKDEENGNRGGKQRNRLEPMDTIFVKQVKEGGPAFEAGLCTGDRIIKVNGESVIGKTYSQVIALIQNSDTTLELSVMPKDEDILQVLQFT
# MPDZ_10, O75970 = molecular target: T6, MPDZ_10, O75970
# T6 sequence (O75970 1624-1722, limits assumed, looked up): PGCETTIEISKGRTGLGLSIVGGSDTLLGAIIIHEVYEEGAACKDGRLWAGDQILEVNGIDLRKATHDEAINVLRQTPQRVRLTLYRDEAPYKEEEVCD
# ARHGEF11, O15085 = molecular target: T7, ARHGEF11, O15085
# T7 sequence (O15085 42-136, limits assumed, looked up): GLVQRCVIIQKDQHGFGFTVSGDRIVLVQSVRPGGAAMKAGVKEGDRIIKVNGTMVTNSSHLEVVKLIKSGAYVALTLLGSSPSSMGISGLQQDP
# IL16_4, Q14005 = molecular target: IL16_4, Q14005
# IL16_4, Q14005, sequence (Q14005 1229-1329): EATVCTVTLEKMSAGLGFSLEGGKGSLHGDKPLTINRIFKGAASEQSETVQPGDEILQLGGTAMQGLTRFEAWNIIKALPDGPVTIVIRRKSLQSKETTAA
# Inadl_3, Q8NI35 = molecular target: Inadl_3, Q8NI35
# Inadl_3, Q8NI35, sequence (Q8NI35 359-469): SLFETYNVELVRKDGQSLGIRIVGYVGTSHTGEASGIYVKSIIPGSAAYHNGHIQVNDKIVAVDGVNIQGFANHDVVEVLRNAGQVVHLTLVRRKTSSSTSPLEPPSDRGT
# PTPN3, P26045 = molecular target: PTPN3, P26045
# PTPN3, P26045, sequence (P26045 505-587): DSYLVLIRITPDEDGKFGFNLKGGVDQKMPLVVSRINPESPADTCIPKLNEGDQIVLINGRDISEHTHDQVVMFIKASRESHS
# GIPC2, Q8TF65 = molecular target: GIPC2, Q8TF65
# GIPC2, Q8TF65, sequence (Q8TF65 112-203): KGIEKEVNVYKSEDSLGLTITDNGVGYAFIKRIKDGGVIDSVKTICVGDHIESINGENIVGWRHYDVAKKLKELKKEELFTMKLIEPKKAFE
# DVL3, Q92997 = molecular target: T8, DVL3, Q92997
# T8 sequence (Q92997 244-331, limits assumed, looked up): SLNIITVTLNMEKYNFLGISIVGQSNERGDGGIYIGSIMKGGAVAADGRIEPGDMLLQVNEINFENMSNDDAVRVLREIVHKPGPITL
# PTPN13_1, Q12923 = molecular target: T9, PTPN13_1, Q12923
# T9 sequence (Q12923 1088-1188, limits assumed, looked up): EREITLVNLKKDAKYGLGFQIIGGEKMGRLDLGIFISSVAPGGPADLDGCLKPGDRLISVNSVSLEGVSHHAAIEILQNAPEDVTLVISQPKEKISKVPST
# Inadl_6, Q8NI35 = molecular target: Inadl_6, Q8NI35
# Inadl_6, Q8NI35, sequence (Q8NI35 1058-1167): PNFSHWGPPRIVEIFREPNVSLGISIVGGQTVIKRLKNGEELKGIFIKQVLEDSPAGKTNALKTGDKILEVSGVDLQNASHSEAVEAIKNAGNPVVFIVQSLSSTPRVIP
# MPP6, Q9NZW5 = molecular target: T10, MPP6, Q9NZW5
# T10 sequence (Q9NZW5 125-219, limits assumed, looked up): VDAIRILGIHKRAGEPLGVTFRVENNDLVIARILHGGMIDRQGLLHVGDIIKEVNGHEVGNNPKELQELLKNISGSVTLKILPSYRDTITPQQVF
# Inadl_2, Q8NI35 = molecular target: Inadl_2, Q8NI35
# Inadl_2, Q8NI35, sequence (Q8NI35 238-335): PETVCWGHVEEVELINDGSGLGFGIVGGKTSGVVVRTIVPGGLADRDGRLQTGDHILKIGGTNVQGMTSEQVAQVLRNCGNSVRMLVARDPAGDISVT
# ARHGEF12, Q9NZN5-2 = molecular target: ARHGEF12, Q9NZN5-2
# ARHGEF12, Q9NZN5-2, sequence (Q9NZN5 other isoform, or with tags, fused parts or gaps): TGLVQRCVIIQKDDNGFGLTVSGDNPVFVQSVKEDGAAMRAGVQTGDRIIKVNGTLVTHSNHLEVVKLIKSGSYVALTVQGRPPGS
# RAPGEF6, Q8TEU7 = molecular target: T11, RAPGEF6, Q8TEU7
# T11 sequence (Q8TEU7 525-625, limits assumed, looked up): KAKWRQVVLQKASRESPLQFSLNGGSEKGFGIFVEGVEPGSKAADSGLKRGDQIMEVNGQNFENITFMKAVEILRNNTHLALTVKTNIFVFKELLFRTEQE
# MPDZ_5, O75970 = molecular target: T12, MPDZ_5, O75970
# T12 sequence (O75970 695-796, limits assumed, looked up): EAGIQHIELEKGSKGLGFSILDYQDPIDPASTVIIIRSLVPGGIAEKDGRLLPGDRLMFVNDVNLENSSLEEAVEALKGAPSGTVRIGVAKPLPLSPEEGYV
# MAGI1_2, Q96QZ7 = molecular target: MAGI1_2, Q96QZ7
# MAGI1_2, Q96QZ7, sequence (Q96QZ7 456-580): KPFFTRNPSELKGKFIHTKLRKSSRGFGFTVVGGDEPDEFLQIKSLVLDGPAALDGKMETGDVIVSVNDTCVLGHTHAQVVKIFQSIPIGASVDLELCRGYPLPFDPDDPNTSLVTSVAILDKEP
# NHERF4_4, Q86UT5 = molecular target: NHERF4_4, Q86UT5
# NHERF4_4, Q86UT5, sequence (Q86UT5 464-550): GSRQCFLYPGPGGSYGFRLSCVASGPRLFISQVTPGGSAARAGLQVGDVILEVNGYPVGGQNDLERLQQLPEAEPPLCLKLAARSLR
# GRIP2_5, Q9C0E4 = molecular target: GRIP2_5, Q9C0E4
# GRIP2_5, Q9C0E4, sequence (Q9C0E4 544-642): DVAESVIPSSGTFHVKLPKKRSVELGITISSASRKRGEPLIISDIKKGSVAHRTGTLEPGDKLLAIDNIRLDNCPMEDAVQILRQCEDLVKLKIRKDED
# [1] = plain residues with an end cap or a label only (N-terminal biotin on a linker: none)
# [2] = plain residues with an end cap or a label only (N-terminal biotin on a linker: ttds)
# TJP1_3, Q07157, sequence (Q07157 416-512): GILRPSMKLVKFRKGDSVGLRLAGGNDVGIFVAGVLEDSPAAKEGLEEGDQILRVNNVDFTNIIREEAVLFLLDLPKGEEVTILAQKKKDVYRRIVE
binder,measurement,setting,value
"DSKPPLPPDEWV [MERS-E, K9N5R3]",pKd,"TJP1_3, Q07157; [1]",3.56
same,pKd,"LIN7C, Q9NUP9; [1]",below the threshold
same,pKd,"RADIL, Q96JH8; [1]",4.06
same,pKd,"SIPA1L2, Q9P2F8; [1]",below the threshold
same,pKd,"HTRA2, O43464; [1]",4.2
same,pKd,"CARD11, Q9BXL7; [1]",below the threshold
same,pKd,"PDLIM1, O00151; [1]",below the threshold
same,pKd,"ARHGAP21, Q5T5U3; [1]",3.76
same,pKd,"MPDZ_10, O75970; [1]",below the threshold
same,pKd,"ARHGEF11, O15085; [1]",3.91
same,pKd,"IL16_4, Q14005; [1]",below the threshold
same,pKd,"Inadl_3, Q8NI35; [1]",3.55
same,pKd,"PTPN3, P26045; [1]",3.87
same,pKd,"GIPC2, Q8TF65; [1]",below the threshold
same,pKd,"DVL3, Q92997; [1]",3.78
same,pKd,"PTPN13_1, Q12923; [1]",below the threshold
same,pKd,"Inadl_6, Q8NI35; [1]",3.81
same,pKd,"MPP6, Q9NZW5; [1]",below the threshold
same,pKd,"Inadl_2, Q8NI35; [1]",below the threshold
same,pKd,"ARHGEF12, Q9NZN5-2; [1]",3.76
same,pKd,"RAPGEF6, Q8TEU7; [1]",below the threshold
same,pKd,"MPDZ_5, O75970; [1]",below the threshold
same,pKd,"MAGI1_2, Q96QZ7; [1]",below the threshold
same,pKd,"NHERF4_4, Q86UT5; [1]",below the threshold
same,pKd,"GRIP2_5, Q9C0E4; [1]",below the threshold
"HRTCYLVTQL [ASIC3, Q9UHC3]",pKd,"TJP1_3, Q07157; [2]",below the threshold
same,pKd,"LIN7C, Q9NUP9; [2]",3.41
same,pKd,"RADIL, Q96JH8; [2]",4.43
same,pKd,"SIPA1L2, Q9P2F8; [2]",below the threshold
same,pKd,"HTRA2, O43464; [2]",3.91
same,pKd,"CARD11, Q9BXL7; [2]",below the threshold
same,pKd,"PDLIM1, O00151; [2]",3.46
same,pKd,"ARHGAP21, Q5T5U3; [2]",3.47
same,pKd,"MPDZ_10, O75970; [2]",3.91
same,pKd,"ARHGEF11, O15085; [2]",4.83
same,pKd,"IL16_4, Q14005; [2]",3.21
same,pKd,"Inadl_3, Q8NI35; [2]",3.33
same,pKd,"PTPN3, P26045; [2]",4.48
same,pKd,"GIPC2, Q8TF65; [2]",below the threshold
same,pKd,"DVL3, Q92997; [2]",3.3
same,pKd,"PTPN13_1, Q12923; [2]",3.36
same,pKd,"Inadl_6, Q8NI35; [2]",4.23
same,pKd,"MPP6, Q9NZW5; [2]",3.45
same,pKd,"Inadl_2, Q8NI35; [2]",below the threshold
same,pKd,"ARHGEF12, Q9NZN5-2; [2]",5.63
same,pKd,"RAPGEF6, Q8TEU7; [2]",3.49
same,pKd,"MPDZ_5, O75970; [2]",3.4
same,pKd,"MAGI1_2, Q96QZ7; [2]",4.83
same,pKd,"NHERF4_4, Q86UT5; [2]",3.45
same,pKd,"GRIP2_5, Q9C0E4; [2]",4.31
"TGDTLEKFVEGL [CBP, Q92793]",pKd,"TJP1_3, Q07157; [2]",below the threshold
same,pKd,"LIN7C, Q9NUP9; [2]",below the threshold
same,pKd,"RADIL, Q96JH8; [2]",below the threshold
same,pKd,"SIPA1L2, Q9P2F8; [2]",below the threshold
same,pKd,"HTRA2, O43464; [2]",below the threshold
same,pKd,"CARD11, Q9BXL7; [2]",below the threshold
same,pKd,"PDLIM1, O00151; [2]",below the threshold
same,pKd,"ARHGAP21, Q5T5U3; [2]",below the threshold
same,pKd,"MPDZ_10, O75970; [2]",3.67
same,pKd,"ARHGEF11, O15085; [2]",below the threshold
same,pKd,"IL16_4, Q14005; [2]",below the threshold
same,pKd,"Inadl_3, Q8NI35; [2]",below the threshold
same,pKd,"PTPN3, P26045; [2]",below the threshold
same,pKd,"GIPC2, Q8TF65; [2]",below the threshold
same,pKd,"DVL3, Q92997; [2]",below the threshold
same,pKd,"PTPN13_1, Q12923; [2]",below the threshold
same,pKd,"Inadl_6, Q8NI35; [2]",below the threshold
same,pKd,"MPP6, Q9NZW5; [2]",below the threshold
same,pKd,"Inadl_2, Q8NI35; [2]",below the threshold
same,pKd,"ARHGEF12, Q9NZN5-2; [2]",below the threshold
same,pKd,"RAPGEF6, Q8TEU7; [2]",below the threshold
same,pKd,"MPDZ_5, O75970; [2]",below the threshold
same,pKd,"MAGI1_2, Q96QZ7; [2]",below the threshold
same,pKd,"NHERF4_4, Q86UT5; [2]",below the threshold
same,pKd,"GRIP2_5, Q9C0E4; [2]",below the threshold
